Measured values from the supplement of paper PMC12042874.
± gives the uncertainty stated by the source.

Test: amyloid nucleation score (Sup35N fusion, yeast selection) (log enrichment); library NNK1; higher = more nucleation; inactive = no reads after selection
Summary of the method: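 Yeast lacking psi expressed peptides of 20 random codons fused to Sup35N, received 100 μM copper sulfate for 24 hours, and were then grown for 7 days at 30°C on medium lacking adenine and uracil. Illumina sequencing of input and output plasmid inserts provided the reads. Nucleation scores are DiMSum log enrichments of output over input, centred on the mode of non-aggregating sequences. Any sequence with under 100 input reads was excluded.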

| Substance | amyloid nucleation score |
| --- | --- |
| CTYTAPYAPSLMPGPRVGYI | inactive |
| CVFSVRYALDRWDPTKCEVG | 0.325 ± 0.43 |
| CVFVRVF | inactive |
| CVFYGFWYFGW | 0.145 ± 0.34 |
| CVGDFVME | -0.318 ± 0.98 |
| CVHQIVGLTRIPFGWELSWR | -1.62 ± 1.7 |
| CVIRKSLFKCQFSMIRESWV | 0.298 ± 0.31 |
| CVKLGYYWSF | 0.598 ± 0.16 |
| CVLRMNVFDSKGFWVGYRRD | 0.602 ± 0.41 |
| CVLSPALFMRARLLRGILGR | 0.332 ± 0.72 |
| CVMWGTLRFLNLASGLFLCA | 0.778 ± 0.93 |
| CVNKPLNGHLANMSWRGY | 1.15 ± 0.57 |
| CVPSVRNSVMW | -0.181 ± 0.88 |
| CVRFDSVNCHHLF | 0.238 ± 0.24 |
| CVSHFIHCDWLGQRL | 0.135 ± 0.26 |
| CVSYNLFLWSYFKRWSNRTC | 0.141 ± 0.79 |
| CVVRVWVYRGGKYVYLEKAP | -1.48 ± 1.4 |
| CWAKEFFNNESIRG | 0.077 ± 0.49 |
| CWDKRLNSY | 0.688 ± 0.61 |
| CWIMYDYSSPGLFL | -1.1 ± 1.6 |
| CWPRWNSVSLGSLSILLCFF | 3.77 ± 0.11 |
| CWQSGMCNRSRMQAVRVPHD | 0.698 ± 0.56 |
| CWRFRPFRPASIKFTQYNNH | 4.49 ± 0.072 |
| CYAPSGLLNLPNASFS | -1.26 ± 1.5 |
| CYATMYAQGDRRSGDGCLPT | -1.86 ± 1.4 |

| Substance | amyloid nucleation score |
| --- | --- |
| CYCFGQCWYDYVCIELLIGR | 5.06 ± 0.052 |
| CYDGDRFIEEA | 0.364 ± 0.66 |
| CYEEPRMPNFFAVFYNSMLE | 0.144 ± 0.41 |
| CYFVCNDHCYFYQSLLQTHE | 5.32 ± 0.058 |
| CYGFLVSMMSYLSLVELVFL | -0.04 ± 0.26 |
| CYKPPLWMMYLLLRRDVYRD | inactive |
| CYKVFPVVSYKVGGASLTAR | 0.105 ± 0.31 |
| CYLACLLQTHYND | -1.18 ± 2.7 |
| CYPPEVF | 1.31 ± 0.67 |
| CYSQDRSRLVSEDYY | -0.525 ± 0.34 |
| CYSWHGVYRGYVYSSYNNYV | 0.77 ± 0.52 |
| DAFIV | -0.684 ± 0.54 |
| DAGNVLARLDGFNAG | -0.121 ± 0.49 |
| DALDLRSWQGEL | -0.274 ± 1.7 |
| DALII | 0.257 ± 0.4 |
| DAQFGRHVLGLFFSRQEMLV | -1.52 ± 1.2 |
| DARLC | -0.226 ± 1 |
| DCGRWNRKRPNSVLGVYL | 1.48 ± 0.88 |
| DCHVRCLRQV | 0.611 ± 0.35 |
| DCPSS | 0.537 ± 0.29 |
| DCQVAVPLRIVKANSVILCG | 0.26 ± 0.37 |
| DDCRMYAFL | 0.776 ± 0.36 |
| DDFAMLE | inactive |
| DDRLLCI | -1.85 ± 2.1 |
| DDSFVLFW | -0.042 ± 0.55 |

| Substance | amyloid nucleation score |
| --- | --- |
| DDWAGLKFSYLWSVCCKWWD | 2.52 ± 0.15 |
| DEITLMLA | 0.155 ± 0.35 |
| DERNACLSSFGVNLRLIKLS | -0.002 ± 0.4 |
| DFFGWTNRNHQNSDSFLWDG | 0.69 ± 0.41 |
| DFGLCHAQNSITQAPDR | -0.153 ± 0.93 |
| DFKVAL | -0.644 ± 0.35 |
| DFLKGLFIRFRKSNFE | -1.11 ± 1.7 |
| DFPVAIVDLRVCWSYLL | 0.526 ± 0.68 |
| DFSSNDGWV | 0.444 ± 0.47 |
| DFTVA | 0.596 ± 0.78 |
| DFVMLEV | -0.594 ± 0.68 |
| DFVRRSNRYRYIVKIV | 0.203 ± 0.39 |
| DFYNETVTFFTHKIVINNWT | 2.17 ± 0.31 |
| DGGICYD | 0.733 ± 0.31 |
| DGGLCFLSMTTIIGGDTLDR | 0.018 ± 0.34 |
| DGLLTGLQDRPNSSRFKYVM | 0.421 ± 0.33 |
| DGLTLFLSRNGDYYSFTKIT | 0.197 ± 0.46 |
| DGMVALYVGYATSLVTWAK | 0.65 ± 0.56 |
| DGTNAYV | -0.986 ± 0.56 |
| DHGFLGE | -0.172 ± 0.76 |
| DHHQGMM | -0.213 ± 1.2 |
| DHVDYSILNYSPMFDCVKFC | 0.028 ± 0.27 |
| DHWSASIVIPVWSERNNSFG | -0.373 ± 1.4 |
| DHYYVVAFFRQLWRCCLFRV | inactive |
| DIGHFHGTDMGCNIF | inactive |

| Substance | amyloid nucleation score |
| --- | --- |
| DIITFHYLRTARLKGRYLFI | inactive |
| DIIWMFWRIINSPFFTQSVV | -0.176 ± 0.26 |
| DIKYECIS | 0.204 ± 0.34 |
| DKAFLWQFEELVAA | -0.331 ± 0.72 |
| DKEMECIYEYAL | 0.523 ± 0.55 |
| DKFLRWVNNVCFKSWTAIAP | 0.609 ± 0.57 |
| DKHSLKILYKCGHPSTDNGQ | 1.51 ± 0.5 |
| DKLKLNRVRSSISSYNKQNK | 1.06 ± 0.28 |
| DKPFCFILNYNSVYDCVMSV | 0.331 ± 1.2 |
| DKTECDQCIKSG | -0.691 ± 0.42 |
| DKVMGRTQLTTCQYATGRCR | 0.406 ± 0.3 |
| DLFLRYSLAGYYAMESPADS | 0.331 ± 0.33 |
| DLFYINIVMKSFVHWVNHLH | 0.416 ± 0.28 |
| DLLFAIMMS | -0.631 ± 1.2 |
| DLQSSSDNLLGYMCFSCCKH | -0.463 ± 0.98 |
| DLSFLRNCSLYSLLGVIG | inactive |
| DLSSRFGRVETERGGKVKCQ | -0.299 ± 1.1 |
| DLTGKVRYQSVLPFVASPSM | 0.11 ± 0.62 |
| DLVAVQESWTLYSLVPQLFY | -0.103 ± 0.4 |
| DLYGRLLNWNTPYKRRWKNR | -0.491 ± 0.46 |
| DLYQCVHPMFHVWVCVTAGW | inactive |
| DMCLWARG | 0.732 ± 1 |
| DMDTQEFLYCSSVKFGSTKD | 5.408 ± 0.047 |
| DMHLMSGDLGMRVRPGGSAV | 0.371 ± 0.7 |
| DMPFSDFMN | -0.096 ± 0.47 |

| Substance | amyloid nucleation score |
| --- | --- |
| DMRYSRSCYTGCTDYYTCLG | -0.546 ± 0.4 |
| DNAYDRVGTQGSAWFCGDCL | -0.655 ± 0.64 |
| DNDSWYKYPCFWLCYFPACN | 5.17 ± 0.052 |
| DNNLGLSWLSILAGFGH | -1.23 ± 0.91 |
| DNRLEYSAGLVRVTRDAKGE | -0.106 ± 0.97 |
| DNTSCLW | inactive |
| DNVCRYGRKCWKRERESGQT | 0.105 ± 0.42 |
| DNWSMDVLFLWMASLGNKYR | inactive |
| DNYGCYCL | 0.802 ± 0.72 |
| DPFAHYISVYRDSHSVYLSS | inactive |
| DPGVNALVLLILKTWDRDYE | -0.638 ± 0.69 |
| DPPTL | 0.409 ± 0.42 |
| DQIGDYLRFACSDKDYS | 0.039 ± 0.76 |
| DQVQGFISFLMLFKDFVSYG | -0.028 ± 0.33 |
| DRFLCGWSLPSC | -0.656 ± 0.61 |
| DRGMMCALVFYRHL | 0.691 ± 0.56 |
| DRRYVKLLRLYCCILECTKV | -0.18 ± 0.38 |
| DRSRVLSSGETGYDIEVGQS | -0.033 ± 0.45 |
| DRVLAVVYAAFAGFRRCMRR | inactive |
| DRWLSM | -0.025 ± 0.51 |
| DRYSNTTFNHIA | 0.779 ± 0.47 |
| DSASL | 0.514 ± 0.79 |
| DSCVFARSIVVNSNSFEVIE | 0.061 ± 0.47 |
| DSFARYVGVLKRLARLSTYR | 0.568 ± 0.72 |
| DSGVAVQMFEQTTGDPGIEG | -0.883 ± 0.76 |

| Substance | amyloid nucleation score |
| --- | --- |
| DSRCHSSSGDRPTLAVYT | -0.198 ± 1.7 |
| DSRYYTDADALVDR | inactive |
| DSSLEVRRNRTSRLYAHFT | -0.218 ± 0.39 |
| DSTDSVESEWNTVRSYVSLW | inactive |
| DSVVCRKYDVIGKCQRRGTC | 0.716 ± 0.61 |
| DSWLVAESSIHAF | -0.049 ± 1.5 |
| DSYWILSLLWGL | -0.369 ± 0.19 |
| DTAFMNMMLWARNYCWFSVQ | inactive |
| DTAWNLVQSVS | 0.496 ± 0.7 |
| DTENPSYMNVNCYWRLLFSR | 0.669 ± 0.4 |
| DTGGLYLERARQFKASMFLR | 0.229 ± 0.42 |
| DTLHSNCCGSWPYDSSKRNV | 0.95 ± 0.33 |
| DVMRYWVMRVVMPAKFKKAY | -0.244 ± 1.1 |
| DVSRQFYFDYYNIKGLNITK | 0.536 ± 0.79 |
| DVWKAGSVGPRQLVRRGGRR | 0.259 ± 0.81 |
| DVYTLMGEVDELRSFRIIIR | -0.458 ± 0.27 |
| DWCYYKRADRRTSSESSRAG | 0.333 ± 0.99 |
| DWLMMDLL | 0.103 ± 1.1 |
| DWMFCTYCVTVFESQNVAVH | 0.272 ± 0.27 |
| DWNEEACV | 0.432 ± 0.57 |
| DWNYKFMGRRLEHMCQVLM | -1.03 ± 1.1 |
| DYDIWDAMPAQFQRITMYSV | -0.243 ± 0.36 |
| DYEPLASDAREEDFCNARRG | -0.677 ± 0.64 |
| DYFWSSSEGWPEFQNIKSIG | -0.07 ± 1.4 |
| DYGAKDHFPIAITKEVMSLN | -0.394 ± 1.2 |

| Substance | amyloid nucleation score |
| --- | --- |
| DYMDSCGYVDSATRYKVSEM | -0.241 ± 1.1 |
| DYPPIRALVSFDCCAVSTCL | 0.922 ± 0.93 |
| DYPRSIILCWHF | -1.39 ± 0.74 |
| DYSSSFVNCIYKKPGQGMFG | 0.133 ± 0.54 |
| DYSVYRSERMCTLRAS | -0.279 ± 0.36 |
| DYTLMRSLESPITDLQSSSG | 0.748 ± 0.88 |
| EALLWTEGMWHSSGGLYSNV | 0.261 ± 0.27 |
| EANCLFEWSMMLRYSARDGT | 0.312 ± 1.4 |
| EAVVRRLSEDSCMELSSDCR | 0.485 ± 0.52 |
| EAYFFEFIKYLSAPAGSGGN | -0.855 ± 0.98 |
| ECFSKFLNLRGSPLG | -0.098 ± 0.53 |
| ECYGIR | 0.893 ± 0.26 |
| EDPVLSREGCKQVNPWILWG | 0.201 ± 1.4 |
| EDRDTLKGM | 0.806 ± 0.57 |
| EELTAYMSLDMQLCRNRAAM | 0.055 ± 0.55 |
| EFGRDNHVLVLWMGRAPSDM | -0.436 ± 0.55 |
| EFKTDPDYT | 0.2 ± 0.53 |
| EFRQMVVSSGSDERGERDKG | 0.052 ± 0.29 |
| EFWWIDICSGCYLFF | 6.5 ± 0.074 |
| EFYVTCFCVRMKTKAYAPLV | 0.106 ± 0.31 |
| EGIHKR | 0.324 ± 0.66 |
| EGIIYS | -0.692 ± 1.1 |
| EGMYC | 0.058 ± 0.34 |
| EHFMSTCKPPDGE | 0.927 ± 0.84 |
